Assays:
[1] = target: recombinant soluble human HLA-G β2M MHC class I complex, monomer (human); experiment: SPR, reference antibody against monomeric wt HLA-G
[2] = target: human HLA-G expressed on cells (JEG3 natural; SKOV3 HLA-G+ and PA-TU-8902 HLA-G+ transfectants) (human) (UniProt P17693); experiment: flow cytometry, JEG3 cells pre-incubated with antibody (40 µg/ml final); competitor ILT2-Fc chimera
[3] = target: recombinant soluble human HLA-G β2M MHC class I complex, dimer (human); experiment: competition ELISA, one antibody concentration; competitor coated ILT4-Fc
[4] = target: recombinant soluble human HLA-G β2M MHC class I complex, monomer (human); experiment: as above
[5] = target: recombinant soluble human HLA-G β2M MHC class I complex, trimer (human); experiment: as above
[6] = target: recombinant soluble human HLA-G β2M MHC class I complex, dimer (human); experiment: competition ELISA, one antibody concentration; competitor coated ILT2-Fc
[7] = target: recombinant soluble human HLA-G β2M MHC class I complex, monomer (human); experiment: as above
[8] = target: recombinant soluble human HLA-G β2M MHC class I complex, trimer (human); experiment: as above
[9] = target: modified human HLA-G β2M MHC class I complex (HLA-G specific amino acids replaced by HLA-A consensus amino acids) (human); experiment: SPR, reference antibody against degrafted HLA-G

| Kd [1] [nM] | koff [1] [s⁻¹] | kon [1] [M⁻¹ s⁻¹] | t 1/2 [1] [min] | Inhibition of ILT2 binding to Jeg3 cells [2] [%] | % inhibition of ILT4 binding [3] [%] | % inhibition of ILT4 binding [4] [%] | % inhibition of ILT4 binding [5] [%] | % inhibition of ILT2 binding [6] [%] | % inhibition of ILT2 binding [7] [%] | % inhibition of ILT2 binding [8] [%] | Kd [9] [nM] | koff [9] [s⁻¹] | kon [9] [M⁻¹ s⁻¹] | t 1/2 [9] [min] | Substance |
| --- | --- | --- | --- | --- | --- | --- | --- | --- | --- | --- | --- | --- | --- | --- | --- |
| 20 | 0.0037 | 180000 | 3 | -55.8 | -20 | -898 | 58 | -132 | 12 | 3 |  |  |  |  | G233 (antibody) |
| 12 | 0.00085 | 74000 | 14 |  |  |  |  |  |  |  | 13 | 0.0012 | 89000 | 10 | MEM-G/11 (antibody) |
| 7.7 | 0.0011 | 150000 | 10 | -27.9 | -44 | -14 | -40 | 1 | -442 | 4 | 300 | 0.036 | 120000 | 0.3 | MEM/G9 (antibody) |

— US20250051455A1
